Ends that are not written are not given here. Peptide text beside a SMILES is read from it. * marks the point of attachment. Dansyl = CN(C)c1cccc2c(S(=O)(=O)*)cccc12
Molecular target: recombinant human farnesyl:protein transferase (hFPTase) (Homo sapiens, UniProt P49354+P49356)
Assay: continuous fluorescence assay of farnesyl:protein transferase activity with dansylated acceptor peptide
Format: biochemical
Conditions: for substrate of FPTase (fluorescence enhancement): other dansylated peptides synthesized to optimize the sensitivity of the assay
Method: FIG. 1A is a fluorescence progress curve, A, of the reaction catalyzed by recombinant human farnesyl:protein transferase (hFPTase; 0.5 nM) using Ds-GlyCysValLeySer (SEQ.ID.NO.:1) (1.0 μM) as substrate in the presence of a saturating concentration of farnesyl diphosphate ([…]) in assay buffer (50 mM Tris-HCl, pH 7.5, 5 mM DTT, 5 mM MgCl2, 10 μM ZnCl2, and 0.2% octyl-β-D-glucopyranoside) at 30° C. Fluorescence data in the integration mode were obtained on a SPEX Fluorolog Model F112X1 spectrofluorimeter with λex =340 nm (slit width=4 nm) and λem =505 nm (slit width=8 nm) using 4 mm square microcells. Concentrations of stock solutions of Ds-GlyCysValLeuSer (SEQ.ID.NO.: 1 ) (in 20 mM Tris-CHl, pH 7.5, 10 mM EDTA) were calculated from the extinction coefficient of the dansyl moiety at 340 nm(ε=4250 M^-1 cm^-1).
Double reciprocal plot of initial velocity versus Ds-GlyCysValLeuSer (SEQ.ID.NO.:1) concentration in the presence of (.cndot.)0, and 50 nM CysIlePheMet (SEQ.ID.NO.:2) at 30° C. Reactions (400 μL) contained hFPTase(1 nM), FPP (10 μM) and varying concentrations of Ds-GlyCysValLeuSer (SEQ.ID.NO.:1) with or without 50 nM peptide CysIlePheMet (SEQ.ID.NO.:2) in assay buffer (see FIG. 1).
The continuous FPTase activity assay is based on the enhancement of fluorescence and the accompanying shift to lower wavelength emission maximum of certain fluorophores, like dansyl, upon change from a polar to non-polar molecular environment (Lakowicz, Principles of Fluorescence Spectroscopy, Plenum Press, New York, (1983)). The present invention utilizes an acceptor peptide substrate with an environmentally sensitive fluorescence probe positioned proximally to the reaction center. Substrate pentapeptide N-dansyl-GlyCysValLeuSer(Ds Gly CysValLeuSer) (SEQ.ID.NO.1) and expected product N-dansyl-Gly(S-farnesyl-Cys)ValLeuSer(Ds-Gly[f-Cys]LeuSer were synthesized by standard methods.
(Pompliano, et al., Biochemistry, 31, 3800-3807 (1992)).

Row | substrate of FPTase (fluorescence enhancement) | Molecule | other results
1 | – | CC(C)=CCC/C(C)=C/CC/C(C)=C/CO[P@@](=O)(O)OP(=O)(O)O (stereo in doubt) [FPP, farnesyl diphosphate, reference compound] | Km (in the presence of Ds-GlyCysValLeuSer as acceptor substrate, read-out: KM (FPP)): 0.03 µM
2 | – | CC(C)C[C@H](NC(=O)[C@@H](NC(=O)[C@H](CS)NC(=O)CNS(=O)(=O)c1cccc2c(N(C)C)cccc12)C(C)C)C(=O)N[C@@H](CO)C(=O)O [Ds-GlyCysValLeuSer, N-dansyl-L-glycinyl-L-cysteinyl-L-valinyl-L-leucinyl-L-serine] (Dansyl-GCVLS-OH) | kcat (Ds-GlyCysValLeuSer as acceptor substrate, Michaelis-Menten kinetics, assay buffer pH 7.5, 30° C.): 0.5 S^-1
3 | – | CysIlePheMet (CIFM) [reference compound] | Ki (competitive inhibitor of Ds-GlyCysValLeuSer binding, hFPTase 1 nM, FPP 10 μM, 30° C.): 9 nM
4 | substrates | Ds-CysValIleMet (Dansyl-CVIM) [dansylated peptide] | –
5 | substrates | Ds-CysValLeuSer (Dansyl-CVLS) [dansylated peptide] | –
6 | substrates | Ds-GlyCysCysValLeuSer | –
7 | substrates | Ds-LysCysValLeuSer (Dansyl-KCVLS) [dansylated peptide] | –
